Assay [1] deals with T1, N-terminally truncated 20 mer without methionine-611 (612-622) (Homo sapiens).
T1 construct: source: synthetic peptide, immobilised on a cellulose membrane (PepSpots, JPT Peptide Technologies)
T1 chain: PIWKFPDEEGA
As to the kind of experiment: peptide or protein array; peptides immobilised on a cellulose membrane (PepSpots); Oslo-2 mAb 5 μg/mL in 5% nonfat skim milk, three hours at RT; HRP-conjugated secondary antibody, chemiluminescence. Particulars: both partners purified.

The target in assay [2] is T2, 20 mer epitope peptide GVKPDLSYMPIWKFPDEEGA (region 603-622 in HER2) (Homo sapiens).
T2 construct: region 603-622 in HER2, spanning the N terminus of the p95HER2 extracellular domain; source: synthetic peptide, immobilised on a cellulose membrane (PepSpots, JPT Peptide Technologies)
T2 chain: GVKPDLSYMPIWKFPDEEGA
The assay is described as above. Particulars: both partners purified.

For assay [3], the target named is T3, N-terminally truncated 20 mer without isoleucine-613 (614-622) (Homo sapiens).
T3 construct: source: synthetic peptide, immobilised on a cellulose membrane (PepSpots, JPT Peptide Technologies)
T3 chain: WKFPDEEGA
Described as above. Conditions: both partners purified.

Assay [4] concerns the target T4, N-terminally truncated 20 mer without proline-612 (613-622) (Homo sapiens).
T4 construct: source: synthetic peptide, immobilised on a cellulose membrane (PepSpots, JPT Peptide Technologies)
T4 chain: IWKFPDEEGA
The description is as above. Particulars: both partners purified.

Assay [5] addresses T5, peptide 1 of the overlapping 15mer peptides covering the p95HER2 extracellular domain (Homo sapiens, UniProt P04626).
T5 construct: first 15mer of the p95HER2 extracellular domain, containing MPIW; source: synthetic peptide, immobilised on a cellulose membrane (PepSpots, JPT Peptide Technologies)
T5 chain: MPIWKFPDEEGACQP
The assay is described as above. Particulars: both partners purified.

For assay [6], the target named is T6, 611-CTF-p95HER2 (611-carboxy terminal fragment of HER2) on p95HER2-T47D cells (Homo sapiens, UniProt P04626).
T6 construct: source: p95HER2-T47D cells (C2069, Crown Bioscience); cultured cells and orthotopic xenograft tumours in NSG mice
In words: flow cytometry on cells; Oslo-2 mAb 10 μg/mL on cell lines, 30 min at 4 °C in FACS buffer (PBS pH 7, 2% FBS, 2 mM EDTA), labelled secondary antibody. Conditions: one partner purified.

The target of assay [7] is T7, full-length HER2 in transduced MDA-MB-468 cells (Homo sapiens, UniProt P04626).
T7 construct: full-length HER2 expressed from the plasmid pBABEpuro-ERBB2; source: cultured cells and subcutaneous xenograft tumours
The assay is described as above. Particulars: one partner purified.

Assay [8] deals with T8, full-length HER2 (endogenous) (Homo sapiens, UniProt P04626).
T8 construct: human epidermal growth factor receptor 2 (HER2), full-length, on cells and in tissue sections; also called HER2 full-length; full-length HER2 receptor; source: endogenous, SK-BR-3 and A549 cells; endogenous, human breast carcinoma biopsy and normal human tissues
Described as above. Conditions: one partner purified.

For assay [9], the target named is T9, extracellular domain of p95HER2 peptide with a poly-histidine-tag in the C-terminus (Homo sapiens).
T9 construct: printed with HHHHHH at the C-terminus; also called p95HER2 ECD peptide; source: synthetic peptide (GenScript); not shown: His6, C-terminal, kept
In words: SPR; Oslo-2 mAb (5 μg/mL) covalently immobilised by amine coupling on a CM5 chip, anti-HER2 (cytopla-HER2) mAb on the reference flow cell; p95HER2 ECD peptide as analyte, 0.6 to 2500 nM; HBS-EP+ buffer; 25 °C; Biacore T200; global fit to the 1:1 bimolecular interaction model. Conditions: both partners purified. For orientation: Surface plasmon resonance follows binding to a sensor surface in real time, without labels.

For assay [10], the target named is T6, 611-CTF-p95HER2 (611-carboxy terminal …). In words: flow cytometry on cells; monoclonal hybridoma supernatant (1:50 dilution) on cell lines, 30 min at 4 °C in FACS buffer, goat anti-rat-PE. Particulars: partners not purified. (Flow cytometry measures light scatter and fluorescence of single cells or particles in a stream.)

B1: Oslo-2 mAb (antibody, V domains shown)
VH: EVQILETGGGLVKPGGSLRLSCATSGFNFNDYFMNWVRQAPGKGLEWIAQIRNKNYNYATYFAESLEGRFTISRDDSKSSVYLQVNSLRAEDTALYYCTELRYDYWGQGVMVTVSS
VL: DIVMTQSPFSLAVSEGEMVTINCKSSQSLLSSGNQKNNLAWYQQKPGQSPKLLIYYASTRQSGVPDRFIGSGSGTDFTLTISDVQAEDLADYYCLQHYSSPYTFGAGTKLELK
notes: variable heavy domain; variable light domain; On the peptide membrane Oslo-2 was detected with a horse anti-mouse secondary antibody, so the constant regions may be mouse (surmise); also called Oslo-2 Ab; Oslo-2 (p95HER2) antibody
As to B1, the binding result in [1], in assay [2], in assay [3], in assay [4], in assay [5] and in assay [6] was “binds” in each case. Besides, the binding result in [7] and in [8] was “no binding (tested: 10 μg/mL)” throughout. Moreover, binding in assay [9] was put at a Kd of 2 nM.

B2: mClone 1 (monoclonal hybridoma culture supernatant) (antibody, V domains shown)
VH: B1 VH
VL: B1 VL
notes: constant region of the rat hybridoma antibody; source: rat hybridoma (B-cells fused with Ag8 myeloma cells), sub-cloned by limited dilution, culture supernatant
As to B2, the binding result in assay [10] is recorded as “binds”.

(Values after paper PMC9563779 (Cancers, 2022).)
